Assay results as given in patent USRE40850E1.
“And” between values parts separate entries of the source, which are not always exact repeats. Identical values can stand only once.

What was measured:
[1] = target: PTH receptor present on the SaOS-2 (human osteosarcoma cells) (human (SaOS-2 human osteosarcoma cells)) (UniProt Q03431)
[2] = target: PTH receptor present on the SaOS-2 (human osteosarcoma cells) (human (SaOS-2 human osteosarcoma cells)) (UniProt Q03431); test: displacement of mono-125I-[Nle8,18,Tyr34(3-125I)]bPTH(1-34)NH2 from SaOS-2 cells; Kd defined as half maximal inhibition

Substance | EC50 (half maximal stimulation of adenylate cyclase, cAMP synthesis in SaOS-2 cells) [1] | Kd [2]
[Aib^3]hPTH(1-34)NH2 (from UniProt P01270) (peptide) | 1.1 nM | 4 nM
[Aib^10]hPTH(1-34)NH2 (from UniProt P01270) (peptide) | 0.7 nM | 4 nM
[Aib^16,19]hPTH(1-34)NH2 (from UniProt P01270) (peptide) | 0.6 nM | 4 nM
[Aib^17]hPTH(1-34)NH2 (from UniProt P01270) (peptide) | 2 nM and 3 nM | 5 nM and 50 nM
[Aib^19]hPTH(1-34)NH2 (from UniProt P01270) (peptide) | 0.6 nM | 5 nM
[Aib^34]hPTH(1-34)NH2 (from UniProt P01270) (peptide) | 3 nM | 7 nM
[Cha^7,11,15]hPTH(1-34)NH2 (from UniProt P01270) (peptide) | 1.4 nM | 10 nM
[Cha^7,11, Aib^16]hPTH(1-34)NH2 (from UniProt P01270) (peptide) | 1.1 nM | 4 nM
[Cha^7,11, Aib^19, Lys^30]hPTH(1-34)NH2 (from UniProt P01270) (peptide) | 2 nM | 4 nM
[Cha^7,11, Aib^19]hPTH(1-34)NH2 (from UniProt P01270) (peptide) | 0.5 nM | 7 nM
[Cha^7,11, Nle^8,18,31, Aib^16,19, Tyr^34]hPTH(1-34)NH2 (from UniProt P01270) (peptide) | 4 nM | 40 nM
[Cha^7,11, Nle^8,18,31, Aib^34]hPTH(1-34)NH2 (from UniProt P01270) (peptide) | 1.5 nM | 30 nM
[Cha^7,11, Nle^8,18, Aib^16,19, Tyr^34]hPTH(1-34)NH2 (from UniProt P01270) (peptide) | 1.5 nM | 5 nM
[Cha^7,11, Nle^8,18, Tyr^34]hPTH(1-34)NH2 (from UniProt P01270) (peptide) | 0.6 nM | 6 nM
[Cha^7,11]hPTH(1-34)NH2 (from UniProt P01270) (peptide) | 0.6 nM | 10 nM
[Cha^7]hPTH(1-34)NH2 (from UniProt P01270) (peptide) | 2.3 nM | 20 nM
[Cha^11]hPTH(1-34)NH2 (from UniProt P01270) (peptide) | 2 nM | 5 nM
[Cha^15]hPTH(1-34)NH2 (from UniProt P01270) (peptide) | 1.3 nM | 5 nM
[Cha^23]hPTH(1-34)NH2 (from UniProt P01270) (peptide) | 20 nM | 200 nM
[Cha^24,28,31, Lys^30]hPTH(1-34)NH2 (from UniProt P01270) (peptide) | 7 nM | 500 nM
[Cha^24,28,31]hPTH(1-34)NH2 (from UniProt P01270) (peptide) | 30 nM | 1000 nM
[Cha^24]hPTH(1-34)NH2 (from UniProt P01270) (peptide) | 10 nM | 100 nM
[Cha^28,31]hPTH(1-34)NH2 (from UniProt P01270) (peptide) | 7 nM | 60 nM
[Cha^28]hPTH(1-34)NH2 (from UniProt P01270) (peptide) | 2.5 nM | 50 nM
[Cha^31]hPTH(1-34)NH2 (from UniProt P01270) (peptide) | 4 nM | 30 nM
[Dap^1, Nle^8,18, Tyr^34]hPTH(1-34)NH2 (from UniProt P01270) (peptide) | 10 nM | 150 nM
[Nle^8,18, Cha^27]hPTH(1-34)NH2 (from UniProt P01270) (peptide) | 2 nM | 50 nM
[Nle^31]hPTH(1-34)NH2 (from UniProt P01270) (peptide) | 0.7 nM | 4 nM
[hArg^27]hPTH(1-34)NH2 (from UniProt P01270) (peptide) | 1 nM | 7 nM
